For 1 substance, EC50 results are on record in patent CN114591431A.

The target in the experiment is 重组人GAS6 his 蛋白(Novoprotein，Cat#C01W) (human) (UniProt Q14393). Briefly: ELISA, coated human GAS6 his 0.5 ug/ml, positive control. A general note: In an ELISA, binding on a coated surface is turned into a signal by an enzyme label.
UniProt Q14393, sequence (Q14393 31-678 limits assumed, stated change not applied): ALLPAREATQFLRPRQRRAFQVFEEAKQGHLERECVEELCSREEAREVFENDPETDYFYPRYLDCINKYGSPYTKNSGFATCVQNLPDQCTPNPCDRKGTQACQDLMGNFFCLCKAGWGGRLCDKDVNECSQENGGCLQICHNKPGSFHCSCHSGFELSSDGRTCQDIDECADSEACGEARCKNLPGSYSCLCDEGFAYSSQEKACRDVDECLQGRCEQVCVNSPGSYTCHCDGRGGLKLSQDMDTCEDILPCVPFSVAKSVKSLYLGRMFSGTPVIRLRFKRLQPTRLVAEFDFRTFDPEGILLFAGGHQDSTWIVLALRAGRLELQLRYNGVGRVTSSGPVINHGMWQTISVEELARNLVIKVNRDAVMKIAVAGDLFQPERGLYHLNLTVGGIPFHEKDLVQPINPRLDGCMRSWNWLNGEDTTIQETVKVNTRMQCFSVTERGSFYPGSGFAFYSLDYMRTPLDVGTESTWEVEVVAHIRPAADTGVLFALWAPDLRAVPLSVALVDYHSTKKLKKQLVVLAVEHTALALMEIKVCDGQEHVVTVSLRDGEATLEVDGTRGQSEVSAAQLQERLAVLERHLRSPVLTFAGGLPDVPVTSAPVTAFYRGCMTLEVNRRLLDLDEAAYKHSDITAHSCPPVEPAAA

As usually defined, the EC50 is the concentration that produces a half-maximal response. In turn, “anti-huGas6 antibody (Santa cruz, sc-376087)” displayed a concentration for a half-maximal effect (EC50) of 0.43 nM.
